# B1: Mothers against decapentaplegic homolog 4 (Homo sapiens), Q13485 (parent)
# chain: MDNMSITNTPTSNDACLSIVHSLMCHRQGGESETFAKRAIESLVKKLKEKKDELDSLITAITTNGAHPSKCVTIQRTLDGRLQVAGRKGFPHVIYARLWRWPDLHKNELKHVKYCQYAFDLKCDSVCVNPYHYERVVSPGIDLSGLTLQSNAPSSMMVKDEYVHDFEGQPSLSTEGHSIQTIQHPPSNRASTETYSTPALLAPSESNATSTANFPNIPVASTSQPASILGGSHSEGLLQIASGPQPGQQQNGFTGQPATYHHNSTTTWTGSRTAPYTPNLPHHQNGHLQHHPPMPPHPGHYWPVHNELAFQPPISNHPAPEYWCSIAYFEMDVQVGETFKVPSSCPIVTVDGYVDPSGGDRFCLGQLSNVHRTEAIERARLHIGKGVQLECKGEGDVWVRCLSDHAVFVQSYYLDREAGRAPGDAVHKIYPSAYIKVFDLRQCHRQMQQQAATAQAAAAAQAAAVAGNIPGPGSVGGIAPAISLSAAAGIGVDDLRRLCILRMSFVKGWGPDYPRQSIKETPCWIEIHLHRALQLLDEVLHTMPIADPQPLD
# Variants of: B1
# Conditions: with smad3_human SMAD3, P84022
row,Variant,effect of a mutation on the interaction
1,D351H,disrupting interaction strength

# Variants of: B1
# Conditions: with agap2_human AGAP2, Q99490
# Chain of agap2_human AGAP2, Q99490 (Q99490 whole entry): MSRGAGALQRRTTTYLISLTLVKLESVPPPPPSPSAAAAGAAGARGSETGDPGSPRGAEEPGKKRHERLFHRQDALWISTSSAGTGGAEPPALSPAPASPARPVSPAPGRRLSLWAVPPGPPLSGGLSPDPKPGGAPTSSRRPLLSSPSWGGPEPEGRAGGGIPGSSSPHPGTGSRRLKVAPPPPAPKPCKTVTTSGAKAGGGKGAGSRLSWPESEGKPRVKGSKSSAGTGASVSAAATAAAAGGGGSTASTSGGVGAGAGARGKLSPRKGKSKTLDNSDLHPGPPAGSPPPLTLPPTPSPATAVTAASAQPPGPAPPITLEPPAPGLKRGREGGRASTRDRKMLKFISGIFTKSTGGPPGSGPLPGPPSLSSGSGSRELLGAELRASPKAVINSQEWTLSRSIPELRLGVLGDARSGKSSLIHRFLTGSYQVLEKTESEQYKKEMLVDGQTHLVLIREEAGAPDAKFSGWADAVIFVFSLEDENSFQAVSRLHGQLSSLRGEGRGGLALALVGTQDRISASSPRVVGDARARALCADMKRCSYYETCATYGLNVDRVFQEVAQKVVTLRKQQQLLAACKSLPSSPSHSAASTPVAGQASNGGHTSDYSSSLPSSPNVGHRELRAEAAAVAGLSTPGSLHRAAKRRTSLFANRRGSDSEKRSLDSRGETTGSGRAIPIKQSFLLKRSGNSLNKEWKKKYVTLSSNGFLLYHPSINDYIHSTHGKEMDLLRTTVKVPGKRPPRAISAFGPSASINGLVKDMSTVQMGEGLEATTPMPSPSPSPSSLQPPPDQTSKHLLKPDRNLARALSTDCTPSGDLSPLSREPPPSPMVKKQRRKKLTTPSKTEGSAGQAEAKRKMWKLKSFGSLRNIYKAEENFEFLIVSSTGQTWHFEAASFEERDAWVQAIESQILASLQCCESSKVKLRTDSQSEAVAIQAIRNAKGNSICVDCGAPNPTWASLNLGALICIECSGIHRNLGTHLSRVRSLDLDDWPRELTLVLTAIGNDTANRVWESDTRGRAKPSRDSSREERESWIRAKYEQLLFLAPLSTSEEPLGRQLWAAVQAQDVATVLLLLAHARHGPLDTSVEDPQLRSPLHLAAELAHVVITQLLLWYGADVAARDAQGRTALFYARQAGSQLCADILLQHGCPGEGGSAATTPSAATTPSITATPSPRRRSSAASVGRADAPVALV
row,Variant,effect of a mutation on the interaction
1,D351H,with no effect

# Variants of: B1
# Conditions: with ajuba_human AJUBA
row,Variant,effect of a mutation on the interaction
1,D351H,with no effect

# Variants of: B1
# Conditions: with akts1_human AKT1S1, Q96B36
row,Variant,effect of a mutation on the interaction
1,D351H,with no effect

# Variants of: B1
# Conditions: with akt2_human AKT2, P31751
row,Variant,effect of a mutation on the interaction
1,D351H,with no effect

# Variants of: B1
# Conditions: with alk_human ALK
row,Variant,effect of a mutation on the interaction
1,D351H,with no effect

# Variants of: B1
# Conditions: with aph1a_human APH1A
row,Variant,effect of a mutation on the interaction
1,D351H,with no effect

# Variants of: B1
# Conditions: with arnt_human ARNT
row,Variant,effect of a mutation on the interaction
1,D351H,with no effect

# Variants of: B1
# Conditions: with arc1a_human ARPC1A
row,Variant,effect of a mutation on the interaction
1,D351H,with no effect

# Variants of: B1
# Conditions: with asxl1_human ASXL1, Q8IXJ9
row,Variant,effect of a mutation on the interaction
1,D351H,with no effect

# Variants of: B1
# Conditions: with atpb_human ATP5F1B
row,Variant,effect of a mutation on the interaction
1,D351H,with no effect

# Variants of: B1
# Conditions: with aurkb_human AURKB
row,Variant,effect of a mutation on the interaction
1,D351H,with no effect

# Variants of: B1
# Conditions: with ufo_human AXL
row,Variant,effect of a mutation on the interaction
1,D351H,with no effect

# Variants of: B1
# Conditions: with za2g_human AZGP1, P25311
row,Variant,effect of a mutation on the interaction
1,D351H,with no effect

# Variants of: B1
# Conditions: with b2mg_human B2M
row,Variant,effect of a mutation on the interaction
1,D351H,with no effect

# Variants of: B1
# Conditions: with becn1_human BECN1, Q14457
# Chain of becn1_human BECN1, Q14457 (Q14457 whole entry): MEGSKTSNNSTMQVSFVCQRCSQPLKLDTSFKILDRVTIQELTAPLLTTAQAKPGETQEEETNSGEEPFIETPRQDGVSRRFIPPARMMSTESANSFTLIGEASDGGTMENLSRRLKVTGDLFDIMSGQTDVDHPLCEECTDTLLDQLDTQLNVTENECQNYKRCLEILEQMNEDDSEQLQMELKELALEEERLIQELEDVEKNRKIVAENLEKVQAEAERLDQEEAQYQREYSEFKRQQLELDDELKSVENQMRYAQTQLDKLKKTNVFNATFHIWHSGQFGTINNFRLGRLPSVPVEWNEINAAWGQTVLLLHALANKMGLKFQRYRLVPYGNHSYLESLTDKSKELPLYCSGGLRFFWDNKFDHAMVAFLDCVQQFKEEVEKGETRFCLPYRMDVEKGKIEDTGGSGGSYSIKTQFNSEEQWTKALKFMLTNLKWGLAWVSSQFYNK
row,Variant,effect of a mutation on the interaction
1,D351H,with no effect

# Variants of: B1
# Conditions: with birc2_human BIRC2, Q13490
row,Variant,effect of a mutation on the interaction
1,D351H,with no effect

# Variants of: B1
# Conditions: with braf_human BRAF
row,Variant,effect of a mutation on the interaction
1,D351H,with no effect

# Variants of: B1
# Conditions: with baba2_human BABAM2, Q9NXR7
row,Variant,effect of a mutation on the interaction
1,D351H,with no effect

# Variants of: B1
# Conditions: with btg1_human BTG1, P62324
# Chain of btg1_human BTG1, P62324 (P62324 whole entry): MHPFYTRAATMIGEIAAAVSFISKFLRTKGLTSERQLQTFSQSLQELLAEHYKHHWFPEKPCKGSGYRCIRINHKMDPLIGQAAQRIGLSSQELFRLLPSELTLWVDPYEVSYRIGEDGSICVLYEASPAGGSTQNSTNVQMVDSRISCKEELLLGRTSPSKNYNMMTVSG
row,Variant,effect of a mutation on the interaction
1,D351H,with no effect

# Variants of: B1
# Conditions: with cbl_human CBL
row,Variant,effect of a mutation on the interaction
1,D351H,with no effect

# Variants of: B1
# Conditions: with cblb_human CBLB
row,Variant,effect of a mutation on the interaction
1,D351H,with no effect

# Variants of: B1
# Conditions: with ccnd1_human CCND1, P24385
row,Variant,effect of a mutation on the interaction
1,D351H,with no effect

# Variants of: B1
# Conditions: with ccnd2_human CCND2, P30279
row,Variant,effect of a mutation on the interaction
1,D351H,with no effect

# Variants of: B1
# Conditions: with ccnd3_human CCND3, P30281
row,Variant,effect of a mutation on the interaction
1,D351H,with no effect

# Variants of: B1
# Conditions: with ccne1_human CCNE1, P24864
# Chain of ccne1_human CCNE1, P24864 (P24864 whole entry): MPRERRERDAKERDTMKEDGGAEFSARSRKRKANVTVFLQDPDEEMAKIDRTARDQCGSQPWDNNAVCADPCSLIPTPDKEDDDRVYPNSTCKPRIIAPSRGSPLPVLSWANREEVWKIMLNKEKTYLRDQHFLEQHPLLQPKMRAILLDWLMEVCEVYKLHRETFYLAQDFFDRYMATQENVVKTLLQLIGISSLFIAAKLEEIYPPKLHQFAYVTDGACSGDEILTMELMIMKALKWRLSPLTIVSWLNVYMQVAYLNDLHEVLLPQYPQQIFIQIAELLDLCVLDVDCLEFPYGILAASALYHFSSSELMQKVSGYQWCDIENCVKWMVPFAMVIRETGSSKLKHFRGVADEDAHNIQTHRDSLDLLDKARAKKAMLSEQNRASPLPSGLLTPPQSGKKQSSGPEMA
row,Variant,effect of a mutation on the interaction
1,D351H,with no effect

# Variants of: B1
# Conditions: with cd44_human CD44, P16070
row,Variant,effect of a mutation on the interaction
1,D351H,with no effect

# Variants of: B1
# Conditions: with cd79b_human CD79B
row,Variant,effect of a mutation on the interaction
1,D351H,with no effect

# Variants of: B1
# Conditions: with cdk4_human CDK4, P11802
row,Variant,effect of a mutation on the interaction
1,D351H,with no effect

# Variants of: B1
# Conditions: with cdn2b_human CDKN2B
row,Variant,effect of a mutation on the interaction
1,D351H,with no effect

# Variants of: B1
# Conditions: with cdn2c_human CDKN2C
row,Variant,effect of a mutation on the interaction
1,D351H,with no effect

# Variants of: B1
# Conditions: with cebpa_human CEBPA
row,Variant,effect of a mutation on the interaction
1,D351H,with no effect

# Variants of: B1
# Conditions: with chd1l_human CHD1L
row,Variant,effect of a mutation on the interaction
1,D351H,with no effect

# Variants of: B1
# Conditions: with chd2_human CHD2, O14647
# Chain of chd2_human CHD2, O14647 (O14647 whole entry): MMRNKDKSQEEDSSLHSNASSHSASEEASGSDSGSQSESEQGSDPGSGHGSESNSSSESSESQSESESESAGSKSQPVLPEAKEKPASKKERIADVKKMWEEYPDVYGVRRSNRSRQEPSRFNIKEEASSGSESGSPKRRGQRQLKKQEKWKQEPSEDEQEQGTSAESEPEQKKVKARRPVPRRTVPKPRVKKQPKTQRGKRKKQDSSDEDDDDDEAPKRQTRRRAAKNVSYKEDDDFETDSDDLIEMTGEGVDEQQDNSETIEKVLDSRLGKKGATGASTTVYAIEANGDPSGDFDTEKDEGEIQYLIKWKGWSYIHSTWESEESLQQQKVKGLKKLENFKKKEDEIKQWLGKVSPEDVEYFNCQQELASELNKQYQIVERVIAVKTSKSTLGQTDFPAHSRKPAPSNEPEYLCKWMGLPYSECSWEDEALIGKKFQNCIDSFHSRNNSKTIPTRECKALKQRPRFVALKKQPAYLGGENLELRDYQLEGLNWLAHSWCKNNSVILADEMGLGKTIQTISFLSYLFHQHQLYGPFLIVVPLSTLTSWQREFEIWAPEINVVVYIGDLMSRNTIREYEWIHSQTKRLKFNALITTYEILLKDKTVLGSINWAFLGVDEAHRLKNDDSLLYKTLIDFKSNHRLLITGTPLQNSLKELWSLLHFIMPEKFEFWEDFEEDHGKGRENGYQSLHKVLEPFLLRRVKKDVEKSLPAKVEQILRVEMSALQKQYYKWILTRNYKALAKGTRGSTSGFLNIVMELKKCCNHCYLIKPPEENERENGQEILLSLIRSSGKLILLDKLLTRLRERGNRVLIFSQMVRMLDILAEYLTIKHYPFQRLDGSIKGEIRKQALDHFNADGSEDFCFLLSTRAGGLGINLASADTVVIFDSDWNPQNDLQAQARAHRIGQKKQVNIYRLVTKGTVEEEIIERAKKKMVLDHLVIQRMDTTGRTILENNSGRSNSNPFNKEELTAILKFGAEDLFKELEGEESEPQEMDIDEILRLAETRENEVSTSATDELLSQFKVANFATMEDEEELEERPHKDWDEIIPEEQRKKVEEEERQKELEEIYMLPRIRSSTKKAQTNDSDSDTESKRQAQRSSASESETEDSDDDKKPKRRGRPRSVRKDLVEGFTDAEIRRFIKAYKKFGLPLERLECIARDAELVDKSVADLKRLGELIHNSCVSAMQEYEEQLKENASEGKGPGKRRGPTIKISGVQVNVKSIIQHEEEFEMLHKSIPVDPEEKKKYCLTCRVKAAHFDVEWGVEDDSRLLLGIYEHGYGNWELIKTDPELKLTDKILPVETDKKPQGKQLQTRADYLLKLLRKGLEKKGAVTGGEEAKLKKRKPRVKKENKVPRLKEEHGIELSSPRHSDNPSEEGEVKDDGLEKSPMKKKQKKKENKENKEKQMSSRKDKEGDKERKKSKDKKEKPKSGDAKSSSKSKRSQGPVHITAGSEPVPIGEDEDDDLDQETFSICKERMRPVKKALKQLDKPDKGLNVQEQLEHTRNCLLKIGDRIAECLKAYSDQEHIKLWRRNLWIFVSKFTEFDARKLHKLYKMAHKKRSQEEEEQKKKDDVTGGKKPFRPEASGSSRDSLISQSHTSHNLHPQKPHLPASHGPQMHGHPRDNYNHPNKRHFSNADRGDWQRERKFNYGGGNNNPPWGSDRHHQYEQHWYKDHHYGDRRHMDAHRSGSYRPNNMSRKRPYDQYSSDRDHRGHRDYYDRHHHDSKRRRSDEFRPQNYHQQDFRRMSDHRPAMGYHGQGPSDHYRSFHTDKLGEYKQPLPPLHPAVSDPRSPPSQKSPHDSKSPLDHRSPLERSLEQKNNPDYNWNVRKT
row,Variant,effect of a mutation on the interaction
1,D351H,with no effect

# Variants of: B1
# Conditions: with ch3l1_human CHI3L1, P36222
row,Variant,effect of a mutation on the interaction
1,D351H,with no effect

# Variants of: B1
# Conditions: with csf1r_human CSF1R
row,Variant,effect of a mutation on the interaction
1,D351H,with no effect

# Variants of: B1
# Conditions: with ctna1_human CTNNA1, P35221
# Chain of ctna1_human CTNNA1, P35221 (P35221 whole entry): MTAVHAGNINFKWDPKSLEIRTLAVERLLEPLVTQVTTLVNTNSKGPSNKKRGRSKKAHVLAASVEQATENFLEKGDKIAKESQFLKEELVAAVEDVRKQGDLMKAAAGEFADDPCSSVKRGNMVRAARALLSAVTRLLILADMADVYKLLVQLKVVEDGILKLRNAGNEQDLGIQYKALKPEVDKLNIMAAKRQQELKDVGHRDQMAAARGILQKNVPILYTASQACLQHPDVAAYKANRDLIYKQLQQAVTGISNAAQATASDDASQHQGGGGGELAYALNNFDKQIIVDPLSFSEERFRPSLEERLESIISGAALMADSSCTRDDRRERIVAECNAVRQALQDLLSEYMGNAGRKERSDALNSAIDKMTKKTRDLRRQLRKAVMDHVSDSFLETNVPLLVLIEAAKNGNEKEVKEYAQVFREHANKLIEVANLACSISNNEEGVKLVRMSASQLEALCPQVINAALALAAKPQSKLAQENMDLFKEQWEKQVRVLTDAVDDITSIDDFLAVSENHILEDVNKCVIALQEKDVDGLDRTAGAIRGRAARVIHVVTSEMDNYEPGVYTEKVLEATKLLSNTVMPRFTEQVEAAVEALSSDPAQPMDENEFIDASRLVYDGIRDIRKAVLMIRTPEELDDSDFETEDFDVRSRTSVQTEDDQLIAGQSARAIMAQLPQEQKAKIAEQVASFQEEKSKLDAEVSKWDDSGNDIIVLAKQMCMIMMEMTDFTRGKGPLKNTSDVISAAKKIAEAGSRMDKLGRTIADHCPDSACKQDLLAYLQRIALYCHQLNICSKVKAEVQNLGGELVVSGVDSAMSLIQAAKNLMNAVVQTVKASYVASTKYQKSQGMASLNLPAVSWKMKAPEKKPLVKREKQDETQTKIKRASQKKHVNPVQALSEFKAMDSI
row,Variant,effect of a mutation on the interaction
1,D351H,with no effect

# Variants of: B1
# Conditions: with ctnb1_human CTNNB1, P35222
row,Variant,effect of a mutation on the interaction
1,D351H,with no effect

# Variants of: B1
# Conditions: with cul3_human CUL3, Q13618
row,Variant,effect of a mutation on the interaction
1,D351H,with no effect

# Variants of: B1
# Conditions: with dicer_human DICER1, Q9UPY3
row,Variant,effect of a mutation on the interaction
1,D351H,with no effect

# Variants of: B1
# Conditions: with duox2_human DUOX2, Q9NRD8
row,Variant,effect of a mutation on the interaction
1,D351H,with no effect

# Variants of: B1
# Conditions: with e2f1_human E2F1, Q01094
row,Variant,effect of a mutation on the interaction
1,D351H,with no effect

# Variants of: B1
# Conditions: with e2f2_human E2F2, Q14209
row,Variant,effect of a mutation on the interaction
1,D351H,with no effect

# Reference: IntAct's records for PubMed 35512704
